The values below come from US20090324600A1 (PIERRE FABRE MEDICAMENT, published 2009).

A value given as a limit tells only on which side of the number the result lay.

Test [1] deals with integrin α3β1 (UniProt P26006). The test can be described thus: cell-based or functional assay.
In test [2] the target is integrin α6β4 (UniProt P23229). The test is described as follows: cell-based or functional assay.
The target in test [3] is T1, murine CD151 (murine, UniProt O35566 1-253).
T1 construct: Endogenous protein in mouse tissue lysates on a Western blot; also called murine receptor
T1 sequence (looked up): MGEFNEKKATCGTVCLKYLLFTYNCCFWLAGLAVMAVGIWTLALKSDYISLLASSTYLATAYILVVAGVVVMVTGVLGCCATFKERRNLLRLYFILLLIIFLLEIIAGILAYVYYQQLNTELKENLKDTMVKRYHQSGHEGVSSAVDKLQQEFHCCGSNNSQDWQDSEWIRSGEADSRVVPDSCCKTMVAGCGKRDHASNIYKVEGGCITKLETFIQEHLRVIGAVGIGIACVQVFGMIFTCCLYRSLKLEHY
The test is described as follows: Western blot of murine lung, pancreas and colon tissue lysates (10 µg total protein), non-reductive conditions. The method, then:
The specificity of the TS151 and TS151r antibodies was evaluated by Western blot. Lysates of human and murine lung, pancreas and colon tissues (Biochain, 10 μg of total proteins) and also increasing amounts of HT-29 cell lysate (10, 20 and 50 μg of total proteins) were placed on a 4-12% acrylamide gel (BioRad). After electrophoresis (non-reductive conditions), the proteins were transferred onto nitrocellulose membranes. The transfer membranes were then incubated with the purified TS151 and TS151r antibodies and then with a rabbit anti-mouse Ig polyclonal antibody coupled to peroxidase (GE Healthcare) before ECL-type visualisation.

Chain of integrin α3β1 (P26006 33-1051, chain 1 of 2): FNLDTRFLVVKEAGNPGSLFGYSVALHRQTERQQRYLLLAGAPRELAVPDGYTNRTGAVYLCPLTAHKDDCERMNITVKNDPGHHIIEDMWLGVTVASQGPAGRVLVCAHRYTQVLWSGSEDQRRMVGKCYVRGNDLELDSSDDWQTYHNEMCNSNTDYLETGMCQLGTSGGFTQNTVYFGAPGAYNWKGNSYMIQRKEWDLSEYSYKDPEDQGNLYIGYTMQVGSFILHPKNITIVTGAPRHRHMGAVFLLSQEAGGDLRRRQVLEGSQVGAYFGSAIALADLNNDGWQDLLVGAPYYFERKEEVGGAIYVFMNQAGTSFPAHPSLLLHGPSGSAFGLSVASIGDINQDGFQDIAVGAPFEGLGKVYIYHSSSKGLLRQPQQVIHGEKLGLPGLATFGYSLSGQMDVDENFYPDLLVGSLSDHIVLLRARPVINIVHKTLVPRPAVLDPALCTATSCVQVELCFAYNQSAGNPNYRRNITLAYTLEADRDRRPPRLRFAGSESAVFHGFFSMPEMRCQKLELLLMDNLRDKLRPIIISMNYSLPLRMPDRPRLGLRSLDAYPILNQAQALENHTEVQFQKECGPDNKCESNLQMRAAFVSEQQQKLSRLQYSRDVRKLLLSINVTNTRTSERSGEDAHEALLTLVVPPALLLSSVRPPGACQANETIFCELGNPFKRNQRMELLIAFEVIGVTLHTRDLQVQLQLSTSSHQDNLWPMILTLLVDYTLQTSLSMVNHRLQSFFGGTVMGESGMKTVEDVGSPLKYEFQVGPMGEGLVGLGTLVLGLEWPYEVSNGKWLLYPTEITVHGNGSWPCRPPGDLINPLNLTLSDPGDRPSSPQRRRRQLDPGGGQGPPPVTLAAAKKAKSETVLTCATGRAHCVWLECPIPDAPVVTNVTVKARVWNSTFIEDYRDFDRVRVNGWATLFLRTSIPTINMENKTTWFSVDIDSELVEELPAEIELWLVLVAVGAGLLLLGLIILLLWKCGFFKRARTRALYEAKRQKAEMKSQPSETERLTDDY
Chain of integrin α3β1 (P05556 21-798, chain 2 of 2, further chain): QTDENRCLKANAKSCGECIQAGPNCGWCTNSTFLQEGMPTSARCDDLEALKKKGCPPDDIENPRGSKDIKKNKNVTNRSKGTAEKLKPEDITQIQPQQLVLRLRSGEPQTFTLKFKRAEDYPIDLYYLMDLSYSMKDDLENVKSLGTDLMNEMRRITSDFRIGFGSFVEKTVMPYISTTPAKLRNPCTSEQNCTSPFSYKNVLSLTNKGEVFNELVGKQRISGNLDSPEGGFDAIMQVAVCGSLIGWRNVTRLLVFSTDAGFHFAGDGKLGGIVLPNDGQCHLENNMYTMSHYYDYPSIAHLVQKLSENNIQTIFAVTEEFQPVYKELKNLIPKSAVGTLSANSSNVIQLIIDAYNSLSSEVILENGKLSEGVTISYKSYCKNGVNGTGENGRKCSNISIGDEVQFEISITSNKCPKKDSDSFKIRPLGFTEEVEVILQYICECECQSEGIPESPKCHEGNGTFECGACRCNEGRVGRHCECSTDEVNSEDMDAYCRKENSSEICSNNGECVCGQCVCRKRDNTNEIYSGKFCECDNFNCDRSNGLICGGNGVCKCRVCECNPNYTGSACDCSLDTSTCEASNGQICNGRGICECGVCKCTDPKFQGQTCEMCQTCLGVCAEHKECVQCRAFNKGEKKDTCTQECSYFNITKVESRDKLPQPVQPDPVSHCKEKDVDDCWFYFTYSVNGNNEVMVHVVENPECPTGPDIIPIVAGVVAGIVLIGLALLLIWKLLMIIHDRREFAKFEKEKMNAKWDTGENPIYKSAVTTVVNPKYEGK
Chain of integrin α6β4 (P23229 24-1130 limits assumed, chain 1 of 2): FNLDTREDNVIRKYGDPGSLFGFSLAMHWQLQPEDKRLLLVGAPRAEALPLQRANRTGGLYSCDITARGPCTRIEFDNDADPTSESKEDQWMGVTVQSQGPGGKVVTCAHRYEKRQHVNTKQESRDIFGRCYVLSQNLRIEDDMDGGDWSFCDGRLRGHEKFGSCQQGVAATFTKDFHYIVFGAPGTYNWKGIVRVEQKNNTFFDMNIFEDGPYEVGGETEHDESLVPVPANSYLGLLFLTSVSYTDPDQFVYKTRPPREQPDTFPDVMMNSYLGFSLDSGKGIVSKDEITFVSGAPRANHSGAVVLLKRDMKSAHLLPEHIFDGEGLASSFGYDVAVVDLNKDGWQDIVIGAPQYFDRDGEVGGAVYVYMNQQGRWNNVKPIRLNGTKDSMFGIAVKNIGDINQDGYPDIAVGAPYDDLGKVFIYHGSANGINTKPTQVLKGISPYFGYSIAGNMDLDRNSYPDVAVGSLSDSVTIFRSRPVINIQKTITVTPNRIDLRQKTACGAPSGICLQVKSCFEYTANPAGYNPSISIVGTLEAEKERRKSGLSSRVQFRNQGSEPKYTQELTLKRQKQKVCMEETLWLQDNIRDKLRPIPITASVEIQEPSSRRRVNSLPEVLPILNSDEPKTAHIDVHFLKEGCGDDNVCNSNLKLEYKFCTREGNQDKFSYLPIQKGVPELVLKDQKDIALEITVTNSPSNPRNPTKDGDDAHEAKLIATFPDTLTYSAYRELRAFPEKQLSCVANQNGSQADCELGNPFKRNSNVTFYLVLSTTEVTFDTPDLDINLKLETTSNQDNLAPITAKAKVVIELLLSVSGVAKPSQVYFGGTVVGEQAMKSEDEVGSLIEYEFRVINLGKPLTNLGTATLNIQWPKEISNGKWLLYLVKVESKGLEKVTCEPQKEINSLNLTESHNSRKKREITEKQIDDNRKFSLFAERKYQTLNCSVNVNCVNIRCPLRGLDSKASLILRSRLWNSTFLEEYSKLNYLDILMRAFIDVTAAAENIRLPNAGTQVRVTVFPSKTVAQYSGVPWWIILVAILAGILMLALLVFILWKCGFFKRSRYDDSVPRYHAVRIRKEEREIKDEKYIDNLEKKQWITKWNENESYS
Chain of integrin α6β4 (P16144 28-1822 limits assumed, chain 2 of 2, further chain): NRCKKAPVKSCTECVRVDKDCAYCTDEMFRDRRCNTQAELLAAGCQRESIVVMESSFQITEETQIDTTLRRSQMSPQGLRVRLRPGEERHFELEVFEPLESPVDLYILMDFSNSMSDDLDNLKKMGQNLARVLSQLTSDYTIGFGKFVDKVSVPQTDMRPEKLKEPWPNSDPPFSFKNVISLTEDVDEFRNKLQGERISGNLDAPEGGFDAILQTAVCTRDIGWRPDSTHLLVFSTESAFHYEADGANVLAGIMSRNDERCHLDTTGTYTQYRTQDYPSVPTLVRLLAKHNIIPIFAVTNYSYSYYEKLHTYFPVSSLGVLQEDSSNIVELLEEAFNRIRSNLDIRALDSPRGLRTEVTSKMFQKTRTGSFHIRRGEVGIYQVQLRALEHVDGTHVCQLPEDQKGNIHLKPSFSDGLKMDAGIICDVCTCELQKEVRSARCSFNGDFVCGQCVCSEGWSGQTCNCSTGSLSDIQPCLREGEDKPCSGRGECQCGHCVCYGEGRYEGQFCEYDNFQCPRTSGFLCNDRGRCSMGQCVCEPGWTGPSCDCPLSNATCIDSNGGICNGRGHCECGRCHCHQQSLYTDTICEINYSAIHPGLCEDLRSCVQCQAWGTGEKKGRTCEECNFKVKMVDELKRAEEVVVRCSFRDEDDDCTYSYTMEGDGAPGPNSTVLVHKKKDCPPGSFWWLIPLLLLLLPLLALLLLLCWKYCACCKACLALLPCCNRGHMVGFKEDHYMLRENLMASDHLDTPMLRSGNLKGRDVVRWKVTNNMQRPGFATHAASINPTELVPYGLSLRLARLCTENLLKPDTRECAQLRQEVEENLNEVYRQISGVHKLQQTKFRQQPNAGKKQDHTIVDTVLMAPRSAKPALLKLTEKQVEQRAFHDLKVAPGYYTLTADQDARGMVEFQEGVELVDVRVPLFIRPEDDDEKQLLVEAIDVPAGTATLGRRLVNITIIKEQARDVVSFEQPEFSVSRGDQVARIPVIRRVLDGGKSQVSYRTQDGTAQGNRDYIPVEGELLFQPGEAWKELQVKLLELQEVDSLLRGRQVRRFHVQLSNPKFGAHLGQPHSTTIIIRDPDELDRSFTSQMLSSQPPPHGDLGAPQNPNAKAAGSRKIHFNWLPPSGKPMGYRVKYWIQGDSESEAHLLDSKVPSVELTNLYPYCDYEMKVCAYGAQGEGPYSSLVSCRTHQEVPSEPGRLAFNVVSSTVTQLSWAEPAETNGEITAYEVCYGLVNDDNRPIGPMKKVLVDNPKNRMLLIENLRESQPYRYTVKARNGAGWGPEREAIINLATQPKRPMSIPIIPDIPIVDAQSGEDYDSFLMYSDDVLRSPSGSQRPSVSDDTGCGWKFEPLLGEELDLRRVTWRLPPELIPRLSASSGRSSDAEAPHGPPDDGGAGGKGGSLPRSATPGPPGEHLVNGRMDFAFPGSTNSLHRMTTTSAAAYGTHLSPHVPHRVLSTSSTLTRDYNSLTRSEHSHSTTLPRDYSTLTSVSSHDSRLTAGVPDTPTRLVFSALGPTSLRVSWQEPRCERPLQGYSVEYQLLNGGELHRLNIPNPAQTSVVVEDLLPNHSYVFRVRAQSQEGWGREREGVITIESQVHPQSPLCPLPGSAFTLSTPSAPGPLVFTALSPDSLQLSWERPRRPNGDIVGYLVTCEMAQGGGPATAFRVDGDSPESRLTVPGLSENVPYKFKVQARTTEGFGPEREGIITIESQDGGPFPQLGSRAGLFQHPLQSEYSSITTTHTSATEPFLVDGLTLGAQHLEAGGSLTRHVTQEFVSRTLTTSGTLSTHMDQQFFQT

In test [1], anti-integrin α3 antibody P1B5 displayed an inhibition of adhesion of A549 cells on laminin 5, 15 minutes greater than 90% and an inhibition of adhesion of A549 cells on laminin 5, 1 hour of 20%.

In test [2], anti-integrin α6 antibody NKI-Go3 displayed an inhibition of adhesion of A549 cells on laminin 5 after 1 hour, NKI-Go3 in association with P1B5 greater than 90%.

In the case of anti-integrin β4 antibody ASC-3, in test [2], the inhibition of adhesion of A549 cells on laminin 5 after 1 hour, ASC-3 in association with P1B5 stood at 70%.

B1: TS151 antibody (antibody, mouse IgG1, V domains shown)
VH: QIQLVQSGPELKKPGETVKISCKASGYTFTDYSMHWVKQAPGKGLKWMGWINTETGEPTYTDDFKGRFAFSLETSANTAYLRINNLKNEDTATYFCARREYGNYYGMEYWGQGTSVTVSS
VL: DIVLTQSPASLAVSLGQRATISCRASQSVSTSTFSYIHWYQQKPGQPPKLLIKSASNLESGVPARFSGSGSGTDFTLTIHPVEEEDTATYFCQHSWEIPLTFGAGTKLELK
notes: Murine monoclonal from a hybridoma; also called anti-CD151 antibody TS151
For the molecule B1, the binding result in test [3] is given as “no binding”.

B2: TS151r antibody (antibody, mouse IgG1, V domains shown)
VH: QVQLQQPGSVVVRPGASVKLSCKASGYTFTSSWMHWAKQRPGQGLEWIGQIHPNSGNTNYNEKFKVKATLTIDTSSSTAYVDLNSLTSGDSAVYYCARGDDAYYSGLYAMDYWGQGTSVTVSS
VL: DIVLTQSPASLAVSLGQRATISCRASQSVSTSRYSYMHWYQQIQGQPPKLLIKYASNLESGVPARFSGSGSGTDFTLNIHPVEEEDTATYHCQHSWEIPYTFGGGTTLEIK
notes: Murine monoclonal from a hybridoma
On to B2, for which the binding result in test [3] is given as “no binding”.
